Where two headings read alike, the source gives them in different places.
Experiments:
[1] = target: T1, N-terminal ectodomain of human GLP1R expressed with a myc-myc hexahistidine tag (human, UniProt P43220 24-145, limits assumed); assay: SPR, captured via anti-hFc, 25 C
T1 construct: extracellular domain; also called hGLP1R-MMH; hGLP1R.mmh

[2] = target: T2, full-length human GLP1R on HEK293/CRE-Luc/hGLP1R cells (human, UniProt P43220 24-463); assay: flow cytometry, hGLP1R cells
T2 construct: whole, on cells

[3] = target: T3, full-length cynomolgus GLP1R on HEK293/CRE-Luc/mfGLP1R cells (cynomolgus, UniProt F8V479 24-463); assay: flow cytometry, mfGLP1R cells
T3 construct: whole, on cells

[4] = target: T2, full-length human GLP1R on …; assay: cell-based or functional assay
[5] = target: T1, N-terminal ectodomain of human GLP1R …; assay: SPR, captured via anti-hFc, 25 C; remark: listed apart in the source
[6] = target: T2, full-length human GLP1R on …; assay: cell-based or functional assay; remark: listed apart in the source

T1 sequence (P43220 24-145 limits assumed): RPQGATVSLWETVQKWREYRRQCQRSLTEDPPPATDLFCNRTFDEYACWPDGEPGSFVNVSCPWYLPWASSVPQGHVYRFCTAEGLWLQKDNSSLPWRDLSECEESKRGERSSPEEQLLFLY

Binder | 90 nM hGLP1R.mmh Bound (RU) [1] [RU] | Kd [1] [nM] | t1/2 [1] [min] | EC50 [2] [nM] | Flow S/N [2] [fold] | EC50 [3] [nM] | Flow S/N [3] [fold] | also measured
H4H30484P2 (antibody, V domains shown, parental antibody without Q-tag; also called parent of REGN5619) VH: EVQLVESGGGLVQPGGSLKLSCAASGFTFSGSAMHWVRQASGKGLEWVGRITSKANSYATAYDASVKGRFTISRDDSKNTAYLQMNSLKTEDTAVYYCTRQRFLEFLFLDYWGQGTLVTVSS VL: not shown | 26 | 181 | 0.3 | 1.98 | 208 | 0.963 | 284 | koff [1]: 0.039 s⁻¹; kon [1]: 215000 M⁻¹ s⁻¹
REGN8052 (antibody, V domains shown, parental antibody without Q-tag; also called parent of REGN8072) VH: QVQLVESGGGVVQPARSLRLSCAASGFAFSRSAMHWVRQAPGKGLEWVAVISYDGSNKYYTDSVKGRFTISRDNSKNTLYLQMNTLRAEDTALYYCAKMYTTMDSFDYWGQGTLVTVSS VL: DIQLTQSPSFLSASVGDRVTITCWASQGISSYLAWYQQKPGKAPKLLIYAASTLQSGVPSRFSGSGSGTEFTLTISSLQPEDFALYYCQQLNSYPRTFGQGTKVEIK | 98.7 | 5.49 | 9.6 | 0.705 | – | 2.13 | – | –
REGN8072 (antibody, human IgG4 S228P, kappa, V domains shown, IgG4; Q-tag on light chain N-terminus; also called mAb 4; REGN8072 unconjugated Ab) VH: QVQLVESGGGVVQPARSLRLSCAASGFAFSRSAMHWVRQAPGKGLEWVAVISYDGSNKYYTDSVKGRFTISRDNSKNTLYLQMNTLRAEDTALYYCAKMYTTMDSFDYWGQGTLVTVSS VL: DIQLTQSPSFLSASVGDRVTITCWASQGISSYLAWYQQKPGKAPKLLIYAASTLQSGVPSRFSGSGSGTEFTLTISSLQPEDFALYYCQQLNSYPRTFGQGTKVEIKR | – | – | – | 1.42 | – | – | – | –
H1M30345N (antibody, V domains shown) VH: EVQLVESGGGLVKPGGSLRLSCAASGFIFSRYSMNWVRQAPGKGLEWVSSMSSNSKNTYYADSVKGRFTISRDNAKNSLFLQMNTLRAEDTAVYYCARDGYTLRAFDIWGQGTMVTVSS VL: EIVLTQSPGTLSLSPGERDTLSCRASQSIAGRYVAWYQQKPGQAPRLLIYGASSRATGIPDRFSGSGSGTDFTLTISRLEPEDFAVYYCQQYGSSPWTFGQGTKVEIK | 61.7 | 0.16 | 102 | 1.64 | – | 3.54 | – | –
H4H30452P (antibody, V domains shown, parental antibody without Q-tag; also called parent of REGN7990) VH: not shown VL: DIQMTQSPSSVSASVGDRVTITCRASQGINSWLAWYQQKPGKAPKLLIYAASSLQSGVPSRFSGSGSGTDFTLTISSLQPEDFATYYCHQADSFPYTFGQGTKLEIK | 88.9 | 5.4 | 9.8 | 1.68 | 115 | – | – | koff [1]: 0.00118 s⁻¹; kon [1]: 218000 M⁻¹ s⁻¹
REGN7988-M3190 (antibody, human IgG4 S228P, kappa, V domains shown, linker-payload M3190 (LP11) on Gln 3 of the N-terminal Q-tag LLQGSG) VH: QVQLVESGGGVVQPGRSLRLSCAASGFTFSGYGIHWVRQAPGKGLVWVAVIWYDGSFKYYADSVKGRFTISRDNSKNTLYLQMNSLRAEDTAVYYCARGDSSSSGRYYYYGMDVWGQGTTVTVSS VL: DIQMTQSPSSLSASVGDRVTITCRASQGIRNDLGWYQQKPGTAPKRLIFAASSLQSGVPSRFSGSGSGTEFTLTISSLQPEDFATYYCLQHNNYPPTFGGGTKVEIKR | – | – | – | – | – | – | – | CRE-luc EC50 [4]: 0.107 nM; CRE-luc Relative Potency (% M2361 EC50) [4]: 15.1%; CRE-luc Relative Signal:Noise (% M2361) [4]: 140%; CRE-luc S/N [4]: 90.1 fold
REGN9278-M3190 (antibody, human IgG4 S228P, kappa, V domains shown, linker-payload M3190 (LP11) on Gln 3 of the N-terminal Q-tag LLQGSG, antibody-tethered drug conjugate; also called REGN9278 ATDC) VH: QVQLQQWGAGLLKPSETLSLTCAVYGGSFSGYYWSWIRQPPGKGLEWIGEINHAGSTNYNPSLKSRITISVDTSKNQFSLKLSSVTAADTAVYYCARGWYYGSGSYHRNWFDPWGQGTLVTVSS VL: EIVLTQSPGTLSLSPGERATLSCRASQSVYYSYLAWYQQKPGQAPRLLIYGASNRATGIPDRFSGSGSGTDFTLTISRLEPEDFAVYYCQQYGNSPWTFGQGTKVEIKR | – | – | – | – | – | – | – | CRE-luc EC50 [4]: 0.376 nM; CRE-luc Relative Potency (% M2361 EC50) [4]: 4.3%; CRE-luc Relative Signal:Noise (% M2361) [4]: 115%; CRE-luc S/N [4]: 73.8 fold; 90 nM hGLP1R.mmh Bound (RU) [5]: 55.7 RU; Kd [5]: 1.1 nM; koff [5]: 0.000127 s⁻¹; kon [5]: 116000 M⁻¹ s⁻¹; t1/2 [5]: 91 min
REGN9278 (antibody, human IgG4 S228P, kappa, V domains shown, IgG4; Q-tag on light chain N-terminus; also called mAb 19; REGN9278 unconjugated Ab) VH: QVQLQQWGAGLLKPSETLSLTCAVYGGSFSGYYWSWIRQPPGKGLEWIGEINHAGSTNYNPSLKSRITISVDTSKNQFSLKLSSVTAADTAVYYCARGWYYGSGSYHRNWFDPWGQGTLVTVSS VL: EIVLTQSPGTLSLSPGERATLSCRASQSVYYSYLAWYQQKPGQAPRLLIYGASNRATGIPDRFSGSGSGTDFTLTISRLEPEDFAVYYCQQYGNSPWTFGQGTKVEIKR | – | – | – | 4.21 | 436 | 2.49 | 548 | –
H2aM30341N (antibody, V domains shown, parent of H4H30341N (REGN9278 without Q-tag); also called parent of REGN9278) VH: QVQLQQWGAGLLKPSETLSLTCAVYGGSFSGYYWSWIRQPPGKGLEWIGEINHAGSTNYNPSLKSRITISVDTSKNQFSLKLSSVTAADTAVYYCARGWYYGSGSYHRNWFDPWGQGTLVTVSS VL: EIVLTQSPGTLSLSPGERATLSCRASQSVYYSYLAWYQQKPGQAPRLLIYGASNRATGIPDRFSGSGSGTDFTLTISRLEPEDFAVYYCQQYGNSPWTFGQGTKVEIK | 48.4 | 0.346 | 149 | 2.75 | 595 | 2.1 | 646 | koff [1]: 7.74e-05 s⁻¹; kon [1]: 224000 M⁻¹ s⁻¹
REGN8051 (antibody, V domains shown, parental antibody without Q-tag; also called parent of REGN8070) VH: QVQLVESGGGVGQPGRSLRLSCAASGFTFSRNAMHWVRQAPGKGLEWVAVISYDGSNKHYADSVKGRFTISRDNSKNTLYLEMNSLRVEDTAVYYCAKGGIPFDYWGQGTLVTVSS VL: DIVMTQSPLSSPVTLGQPASISCRSSQSLVHFDGNTYLSWLHQRPGQPPRLLIYKISNRFSGVPDRFSGSGAGTDFTLKISRVEPEDVGVYYCMHATQFPYTFGQGTKLEIK | 73.7 | 3.41 | 54.7 | 7.39 | 560 | 4.12 | 494 | koff [1]: 0.000211 s⁻¹; kon [1]: 61900 M⁻¹ s⁻¹
REGN8070 (antibody, human IgG4 S228P, kappa, V domains shown, IgG4; Q-tag on light chain N-terminus; also called mAb 16; REGN8070 unconjugated Ab) VH: QVQLVESGGGVGQPGRSLRLSCAASGFTFSRNAMHWVRQAPGKGLEWVAVISYDGSNKHYADSVKGRFTISRDNSKNTLYLEMNSLRVEDTAVYYCAKGGIPFDYWGQGTLVTVSS VL: DIVMTQSPLSSPVTLGQPASISCRSSQSLVHFDGNTYLSWLHQRPGQPPRLLIYKISNRFSGVPDRFSGSGAGTDFTLKISRVEPEDVGVYYCMHATQFPYTFGQGTKLEIKR | – | – | – | 3.44 | 322 | 2.05 | 246 | –
COMP Anti-GLP1R mAb1 conjugated to LP4 (antibody, human IgG4 S228P, kappa, V domains shown, azido-PEG3-amine on the Gln of the N-terminal Q-tag LLQGSG, clicked to LP4 (DIBAC-suc-PEG24-P9)) VH: QVTLKESGPGILQPSQTLSLTCSFSGFSLSTSGTGVGWIRQPSGKGLEWLSHIWWDDVKRYNPALKSRLTISRDTSYSQVFLRIASVDTADTATYYCARILDGTGPMDYWGQGTSVTVSS VL: QIVLTQSPAIMSASPGEKVTMTCSASSRVTYMHWYQQRSGTSPKRWIYDTSKLASGVPARFSGSGSGTSYSLTISSMEAEDAATYYCQQWGNNPQYTFGGGTRLEIKR | – | – | – | – | – | – | – | CRE-luc EC50 [6]: 0.0629 nM; CRE-luc Relative Potency (% P8 EC50) [6]: 55.3%; CRE-luc Relative Signal:Noise (% P8) [6]: 87.4%; CRE-luc S/N [6]: 284 fold
COMP Anti-GLP1R mAb1 conjugated to LP3 (antibody, human IgG4 S228P, kappa, V domains shown, azido-PEG3-amine on the Gln of the N-terminal Q-tag LLQGSG, clicked to LP3 (DIBAC-suc-PEG12-P9)) VH: QVTLKESGPGILQPSQTLSLTCSFSGFSLSTSGTGVGWIRQPSGKGLEWLSHIWWDDVKRYNPALKSRLTISRDTSYSQVFLRIASVDTADTATYYCARILDGTGPMDYWGQGTSVTVSS VL: QIVLTQSPAIMSASPGEKVTMTCSASSRVTYMHWYQQRSGTSPKRWIYDTSKLASGVPARFSGSGSGTSYSLTISSMEAEDAATYYCQQWGNNPQYTFGGGTRLEIKR | – | – | – | – | – | – | – | CRE-luc EC50 [6]: 0.044 nM; CRE-luc Relative Potency (% P8 EC50) [6]: 62.1%; CRE-luc Relative Signal:Noise (% P8) [6]: 115%; CRE-luc S/N [6]: 272 fold
COMP Anti-GLP1R mAb1 conjugated to LP1 (antibody, human IgG4 S228P, kappa, V domains shown, azido-PEG3-amine on the Gln of the N-terminal Q-tag LLQGSG, clicked to LP1 (DIBAC-suc-PEG4-P9)) VH: QVTLKESGPGILQPSQTLSLTCSFSGFSLSTSGTGVGWIRQPSGKGLEWLSHIWWDDVKRYNPALKSRLTISRDTSYSQVFLRIASVDTADTATYYCARILDGTGPMDYWGQGTSVTVSS VL: QIVLTQSPAIMSASPGEKVTMTCSASSRVTYMHWYQQRSGTSPKRWIYDTSKLASGVPARFSGSGSGTSYSLTISSMEAEDAATYYCQQWGNNPQYTFGGGTRLEIKR | – | – | – | – | – | – | – | CRE-luc EC50 [6]: 0.0282 nM; CRE-luc Relative Potency (% P8 EC50) [6]: 96.7%; CRE-luc Relative Signal:Noise (% P8) [6]: 90.3%; CRE-luc S/N [6]: 213 fold
REGN9267 (antibody, human IgG4 S228P, kappa, IgG4; Q-tag on heavy chain N-terminus; also called mAb 5; REGN9267 unconjugated Ab) heavy: not shown light: EIVLTQSPGTLSLSPGERDTLSCRASQSIAGRYVAWYQQKPGQAPRLLIYGASSRATGIPDRFSGSGSGTDFTLTISRLEPEDFAVYYCQQYGSSPWTFGQGTKVEIKRTVAAPSVFIFPPSDEQLKSGTASVVCLLNNFYPREAKVQWKVDNALQSGNSQESVTEQDSKDSTYSLSSTLTLSKADYEKHKVYACEVTHQGLSSPVTKSFNRGEC | – | – | – | 0.944 | – | 0.668 | – | –

— patent US20230330254A1 (Regeneron, published 2023)
